Positions count from the first letter of the chain named. One block for each binder: values may come before it.
Target: T1, recombinant LunX protein (antigenic protein fragment of SEQ ID NO: 9 with C-terminal 6His-Tag) (human, UniProt Q9NP55 103-256)
T1 construct: Expressed in E. coli Rosetta (DE3) from pET-22b(+); also called LunX prokaryotic recombinant fusion protein; human LunX protein
T1 sequence: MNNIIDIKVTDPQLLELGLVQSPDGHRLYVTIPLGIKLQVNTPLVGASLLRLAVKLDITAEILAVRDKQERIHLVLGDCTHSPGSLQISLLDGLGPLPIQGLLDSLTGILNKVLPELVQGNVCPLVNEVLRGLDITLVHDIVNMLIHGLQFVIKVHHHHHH
Experiment: hybridoma screening, ELISA (and FACS)

binding result: binds
B1: anti-LunX murine monoclonal antibody PrAb2 (hybridoma Ab2) (antibody, V domains shown)
VH: QVQLQQSGPELVKPGASVKISCKTSGYAFSRSWMSWVKQRPGQGLEWIGRIYPGDGDTKYSGKFEGKATLTADKSSSTAYMQLSSLTSVDSAVYFCARSGGIQGYGMDYWGQGTSVTVSS
VL: DIVVTQSPAALAVSLGQRATISCRASKSVSTSGYTYMHWYQQKPGQPPKLLIYLASKLESGVPARFSGSGSGTDFTLNIHPVEEEDAATYYCQHSRDLTFGSGTKLEIKR
notes: Mouse monoclonal antibody from hybridoma Ab2; heavy chain about 45 kDa, light chain about 25 kDa

binding result: binds
B2: anti-LunX murine monoclonal antibody PrAb1 (hybridoma Ab1) (antibody, V domains shown)
VH: B1 VH with K59N, S61N, E65K
VL: B1 VL with V4L, A10S, S32A, T35S, P47T, D97E
notes: Mouse monoclonal antibody from hybridoma Ab1; heavy chain about 45 kDa, light chain about 25 kDa

Reference: patent US20190322758A1 (IMMUNOPHARMACEUTIC INSTITUTE OF HEFEI RUIDA, published 2019)
